Measurements taken from patent US20120316071A1 (published 2012).
Substitutions are numbered along the chain they refer to. In names and notes the source's numbering stands. One block for each binder: values may come before it.

Assays:
[1] = molecular target: T1, Recombinant Human DLL4 (delta-like protein 4) (human, UniProt Q9NR61 27-524); assay: ELISA, DLL4-coated plate, Fab in solution
T1 construct: Bought recombinant human DLL4 (R&D Systems Cat#1506-D4/CF); also called rHuman DLL4; Delta-like 4

[2] = molecular target: T1, Recombinant Human DLL4 (delta-like …); assay: ECL (MSD) binding assay, DLL4 on plate, Fab in solution
[3] = molecular target: T2, rHuman CD44/Fc Chimera, CF (R&D Systems Cat#3660-CD) (human, UniProt P16070 21-220); assay: ECL Multispot (MSD), antigen spotted on plate, Fab 0.1 uM;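 note: ratio compares each antigen's electrochemiluminescence to the blank within the same well, with a ratio of at least 4 counted as a binding Fab hit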
T2 construct: Bought recombinant Fc chimera; not shown: Fc of the bought R&D Systems chimera

[4] = molecular target: T3, rHuman IGF-1 sR, CF (R&D Systems Cat#391-GR) (human, UniProt P08069 31-932); assay: as above
T3 construct: Bought recombinant soluble receptor; also called insulin-like growth factor-1 soluble receptor

[5] = molecular target: T4, rHuman P-Cadherin/Fc Chimera, CF (R&D Systems Cat#861-PC) (human, UniProt P22223 108-654); assay: as above
T4 construct: Bought recombinant Fc chimera; not shown: Fc of the bought R&D Systems chimera

[6] = molecular target: T5, rHuman Erythropoietin R/Fc Chimera, CF (R&D Systems Cat#963-ER) (human, UniProt P19235 25-250); assay: as above
T5 construct: Bought recombinant Fc chimera; also called EPO R; EPO R/Fc; not shown: Fc of the bought R&D Systems chimera
T5 sequence (looked up): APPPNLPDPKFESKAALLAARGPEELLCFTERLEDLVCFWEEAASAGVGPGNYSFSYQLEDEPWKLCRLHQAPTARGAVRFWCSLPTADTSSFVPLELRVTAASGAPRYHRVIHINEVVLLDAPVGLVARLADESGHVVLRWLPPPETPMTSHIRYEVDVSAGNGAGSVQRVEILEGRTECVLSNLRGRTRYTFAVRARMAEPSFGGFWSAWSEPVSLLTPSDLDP

[7] = molecular target: T6, Recombinant Human DLL4 (R&D Systems Cat#1506-D4/CF) (human, UniProt Q9NR61 27-524); assay: as above
T6 construct: Bought recombinant protein; also called delta-like protein 4; rHuman DLL4

[8] = molecular target: T7, rHuman ErbB2/Fc Chimera, CF (R&D Systems Cat#1129-ER) (human, UniProt P04626 23-652); assay: as above
T7 construct: Bought recombinant Fc chimera; not shown: Fc of the bought R&D Systems chimera

[9] = molecular target: T8, rHuman EGF R/Fc Chimera, CF (R&D Systems Cat#344-ER) (human, UniProt P00533 25-645); assay: as above
T8 construct: Bought recombinant Fc chimera; not shown: Fc of the bought R&D Systems chimera

[10] = molecular target: T9, rHuman HGF R/c-MET/Fc Chimera, CF (R&D Systems Cat#358-MT/CF) (human, UniProt P08581 25-932); assay: as above
T9 construct: Bought recombinant Fc chimera; also called HGF R/Fc; not shown: Fc of the bought R&D Systems chimera

[11] = molecular target: T10, rHuman Notch-1/Fc Chimera, CF (R&D Systems Cat#3647-TK) (human, UniProt P46531 19-526); assay: as above
T10 construct: Bought recombinant Fc chimera; not shown: Fc of the bought R&D Systems chimera

[12] = molecular target: T2, rHuman CD44/Fc Chimera, CF (R&D Systems …); assay: ECL Multispot (MSD), antigen spotted on plate, Fab 0.01 uM;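 note: electrochemiluminescence of each antigen spot divided by the blank of the same well, with a value of 4 or above scoring the Fab as a binding hit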
[13] = molecular target: T3, rHuman IGF-1 sR, CF (R&D Systems …); assay: as above
[14] = molecular target: T4, rHuman P-Cadherin/Fc Chimera, CF (R&D …); assay: as above
[15] = molecular target: T5, rHuman Erythropoietin R/Fc Chimera, CF …; assay: as above
[16] = molecular target: T6, Recombinant Human DLL4 (R&D Systems …); assay: as above
[17] = molecular target: T7, rHuman ErbB2/Fc Chimera, CF (R&D …); assay: as above
[18] = molecular target: T8, rHuman EGF R/Fc Chimera, CF (R&D …); assay: as above
[19] = molecular target: T9, rHuman HGF R/c-MET/Fc Chimera, CF (R&D …); assay: as above
[20] = molecular target: T10, rHuman Notch-1/Fc Chimera, CF (R&D …); assay: as above
[21] = molecular target: T11, Recombinant Human DLL4 (delta-like protein 4) (human, UniProt Q9NR61 27-524); assay: 96-well plate ECL (MSD) assay, DLL4 immobilised, Fab at 10 nM
T11 construct: also called rHuman DLL4; Delta-like 4

[22] = molecular target: T11, Recombinant Human DLL4 (delta-like …); assay: ELISA, DLL4 coated on the plate, Fab at 100 nM, absorbance at 450 nm
[23] = molecular target: T12, rHuman CD44/Fc Chimera, CF (R&D Systems Cat#3660-CD) (human, UniProt P16070 21-220); assay: ECL Multispot (MSD) assay; antigen spotted on plate, Fab in solution;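 note: fab bound 1 h at 20 °C, detected by TAG-labelled antibody electrochemiluminescence, signal relative to each well's blank, ratio of 4 or more marks a hit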
T12 construct: Bought reagent

[24] = molecular target: T13, rHuman IGF-1 sR, CF (R&D Systems Cat#391-GR) (human, UniProt P08069 31-932); assay: as above
T13 construct: Bought soluble receptor; the column head 'IGF-1' means IGF-1 sR; also called insulin-like growth factor-1 soluble receptor

[25] = molecular target: T14, rHuman P-Cadherin/Fc Chimera, CF (R&D Systems Cat#861-PC) (human, UniProt P22223 108-654); assay: as above
T14 construct: Bought reagent

[26] = molecular target: T15, rHuman Erythropoietin R/Fc Chimera, CF (R&D Systems Cat#963-ER) (human, UniProt P19235 25-250); assay: as above
T15 construct: Bought reagent; also called EPO R; Epo R/Fc
T15 sequence (looked up): T5 sequence (looked up)

[27] = molecular target: T16, rHuman ErbB2/Fc Chimera, CF (R&D Systems Cat#1129-ER) (human, UniProt P04626 23-652); assay: as above
T16 construct: Bought reagent; also called human epidermal growth factor 2 receptor

[28] = molecular target: T17, rHuman EGF R/Fc Chimera, CF (R&D Systems Cat#344-ER) (human, UniProt P00533 25-645); assay: as above
T17 construct: Bought reagent; also called epidermal growth factor receptor

[29] = molecular target: T18, rHuman HGF R/c-MET/Fc Chimera, CF (R&D Systems Cat#358-MT/CF) (human, UniProt P08581 25-932); assay: as above
T18 construct: Bought reagent; also called HGF R/Fc; hepatocyte growth factor receptor

[30] = molecular target: T19, rHuman Notch-1/Fc Chimera, CF (R&D Systems Cat#3647-TK) (human, UniProt P46531 19-526); assay: as above
T19 construct: Bought reagent

ELISA (Signal-Noise) [1]: 0.09 | ECL signal [2]: 19600
B1: Fab VH5-51_IGHD5-18*01>3_IGHJ4*01 G100K/G104T G24L & V3-4_IGLJ1*01 (Fab, V domains shown)
VH: EVQLVQSGAEVKKPGESLKISCKLSGYSFTSYWIGWVRQMPGKGLEWMGIIYPGDSDTRYSPSFQGQVTISADKSISTAYLQWSSLKASDTAMYYCARRKYSYTYDYFDYWGQGTLVTVSS
VL: QTVVTQEPSFSVSPGGTVTLTCGLSSGSVSTSYYPSWYQQTPGQAPRTLIYSTNTRSSGVPDRFSGSILGNKAALTITGAQADDESDYYCVLYMGSGISYVFGTGTKVTVL
notes: Fab made in E. coli; also called KT G24L

ELISA (Signal-Noise) [1]: 0.06 | ECL signal [2]: 4200
B2: Fab VH5-51_IGHD5-18*01>3_IGHJ4*01 G100K/G104T G24R & V3-4_IGLJ1*01 (Fab, V domains shown)
VH: B1 VH with L24R
VL: B1 VL
notes: Fab made in E. coli; also called KT G24R

ELISA (Signal-Noise) [1]: 0.28 | ECL signal [2]: 32300
B3: Fab VH5-51_IGHD5-18*01>3_IGHJ4*01 G100K/G104T S28K & V3-4_IGLJ1*01 (Fab, V domains shown)
VH: B1 VH with L24G, S28K
VL: B1 VL
notes: Fab made in E. coli; also called KT S28K

ECL signal/noise ratio [3]: 2.1 | ECL signal/noise ratio [4]: 2 | ECL signal/noise ratio [5]: 1.4 | ECL signal/noise ratio [6]: 2.4 | ECL signal/noise ratio [7]: 139 | ECL signal/noise ratio [8]: 2.2 | ECL signal/noise ratio [9]: 2.3 | ECL signal/noise ratio [10]: 1.9 | ECL signal/noise ratio [11]: 2.6 | ECL signal/noise ratio [12]: 1.5 | ECL signal/noise ratio [13]: 1 | ECL signal/noise ratio [14]: 1.1 | ECL signal/noise ratio [15]: 1.8 | ECL signal/noise ratio [16]: 22.9 | ECL signal/noise ratio [17]: 2 | ECL signal/noise ratio [18]: 1.8 | ECL signal/noise ratio [19]: 1.2 | ECL signal/noise ratio [20]: 1.8
B4: Fab VH1-46_IGHD6-6*01_IGHJ1*01 S103P & L6_IGKJ1*01 (Fab, V domains shown)
VH: QVQLVQSGAEVKKPGASVKVSCKASGYTFTSYYMHWVRQAPGQGLEWMGIINPSGGSTSYAQKFQGRVTMTRDTSTSTVYMELSSLRSEDTAVYYCAREEYSPSSAEYFQHWGQGTLVTVSS
VL: not shown
notes: Fab made in E. coli; The heavy chain variable region was cloned into Plasmid A (CH1, His6 and Flag tags) and the kappa light chain variable region into Plasmid C (kappa CL)

ECL signal/noise ratio [3]: 1.1 | ECL signal/noise ratio [4]: 1 | ECL signal/noise ratio [5]: 0.8 | ECL signal/noise ratio [6]: 1 | ECL signal/noise ratio [7]: 88.3 | ECL signal/noise ratio [8]: 1 | ECL signal/noise ratio [9]: 0.6 | ECL signal/noise ratio [10]: 0.8 | ECL signal/noise ratio [11]: 0.8 | ECL signal/noise ratio [12]: 1.4 | ECL signal/noise ratio [13]: 1.5 | ECL signal/noise ratio [14]: 1 | ECL signal/noise ratio [15]: 1.2 | ECL signal/noise ratio [16]: 27 | ECL signal/noise ratio [17]: 1 | ECL signal/noise ratio [18]: 1 | ECL signal/noise ratio [19]: 1 | ECL signal/noise ratio [20]: 1.4
B5: Fab VH1-46_IGHD6-6*01_IGHJ1*01 S104H & L6_IGKJ1*01 (Fab, V domains shown)
VH: B4 VH with P103S, S104H
VL: not shown
notes: as for B4

ECL Signal [10 nM Fab] [21]: 71600 | ELISA Signal [100 nM Fab] [22]: 0.2
B6: Fab VH1-46_IGHD6-6*01_IGHJ1*01 S102A/S103P/S104F/H111F/G56A & L6_IGKJ1*01 S28N/S30D/S31H (Fab, V domains shown)
VH: B4 VH with G56A, S102A, S104F, H111F
VL: EIVLTQSPATLSLSPGERATLSCRASQNVDHYLAWYQQKPGQAPRLLIYDASNRATGIPARFSGSGSGTDFTLTISSLEPEDFAVYYCQQRSNWPPWTFGQGTKVEIKR
notes: also called H:APFF G56A & L:NDH

ECL signal [23]: 119 | ECL signal [24]: 49 | ECL signal [25]: 236 | ECL signal [26]: 191 | ECL signal [27]: 225 | ECL signal [28]: 252 | ECL signal [29]: 185 | ECL signal [30]: 177
B7: Fab VH1-46_IGHD6-6*01_IGHJ1*01 S102A/S103P/S104F (APF) & L6_IGKJ1*01 R24G/Q27L (Fab, V domains shown)
VH: B4 VH with S102A, S104F
VL: B6 VL with R24G, Q27L, N28S, D30S, H31S
notes: Double mutant that arose inadvertently in the PCR; Fab format as for the parent (CH1 with His6/Flag tags, kappa CL); also called APF / R24G/Q27L

ECL signal [23]: 120 | ECL signal [24]: 151 | ECL signal [25]: 186 | ECL signal [26]: 144 | ECL signal [27]: 156 | ECL signal [28]: 57 | ECL signal [29]: 283 | ECL signal [30]: 56
B8: Fab VH1-46_IGHD6-6*01_IGHJ1*01 S102A/S103P/S104F (APF) & L6_IGKJ1*01 Y32V (Fab, V domains shown)
VH: B4 VH with S102A, S104F
VL: B6 VL with N28S, D30S, H31S, Y32V
notes: Fab format as for the parent (CH1 with His6/Flag tags, kappa CL); also called APF / Y32V

ECL Signal [10 nM Fab] [21]: 49000 | ELISA Signal [100 nM Fab] [22]: 0.08
B9: Fab VH1-46_IGHD6-6*01_IGHJ1*01 S102A/S103P/S104F/H111F & L6_IGKJ1*01 S28N/S30D/S31H (Fab, V domains shown)
VH: B4 VH with S102A, S104F, H111F
VL: B6 VL
notes: Tested as a Fab expressed in E. coli; also called H:APFF & L:NDH; APFF-NDH

ECL Signal [10 nM Fab] [21]: 46700 | ELISA Signal [100 nM Fab] [22]: 0.08
B10: Fab VH1-46_IGHD6-6*01_IGHJ1*01 S102A/S103P/S104F/H111F/S54A & L6_IGKJ1*01 S28N/S30D/S31H (Fab, V domains shown)
VH: B4 VH with S54A, S102A, S104F, H111F
VL: B6 VL
notes: also called H:APFF S54A & L:NDH
